The nanobody polyreactivity screen of Harvey et al. (2022)

Assay: yeast display, Sf9 membrane polyspecificity reagent, FACS + sequencing; frameworks hold sequencing errors
How it was run: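 Sorting gates, low and high (top ~1%), were placed on anti-HA fluorescence to track expression and on streptavidin fluorescence to track reagent binding. A clone's polyreactivity label is taken from the gate it came out of. The reagent was 10% biotinylated, detergent-solubilized Sf9 membrane, applied for 1 hour at 4 °C to galactose-induced yeast display cells.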

Sequence | polyreactivity (PSR sort gate)
QVQLVESGGGLVQAGGSLRLSCAASGSTFFPYAMGWYRQAPGKERELVAAITSGGRTKYADSVKGRFTISRDNAMNTVYLQMNSLKPEDTAVYYCAARGLIKEYGGPYRRFGYWGQGTQVTVSS | high polyreactivity
QVQLVESGGGLVQAGGSLRLSCAASGSIFGDYVMGWYRQAPGKERELVAAISGNGGRTYYADSVKGRFTISRDNAKNTVYLQMNSLKPEDTAVYYCAKVRSVTIGRDYWGQGTQVTVSS | high polyreactivity
QVQLVESGGGLVQAGGSLRLSCAASGFTLAGYDMGWYRQAPGKEREFVATISTYADSVKGRFTISRDNAKNTVYLQMNSQKPEDSAVYYCAAGRYLWHFTFDYWGQGTQVTVSS | low polyreactivity
QVQLVESGGGLVQAGGSLRLSCAASGGIFLSNAMGWSRQAPGKERELVAAISRSGGSTYYADSVKGRFTISRDNAKNTVYLQMNSLKPEDTAVYYCAARWTRNYGMNYWGQGTKVTVSS | high polyreactivity
QVQLVESGGGLVQAGGSPRLSCAASGFTFGHYAMGWYREAPGKERELVAAISIDGGRTYYADSVKGRFTISRDNAKNSVYLQMNSLKPEDTAVYYCAVPRWFYYYWGQGTQVTVSS | high polyreactivity
QVQLVESGGGLVQAGGSLRLSCAASGSTFQYNAMGWYRQAPGKERELVAVISGSGSRTYYADSVKGRFTISRDNSKNTVYLQMNSLKPEDTAVYYCAKQRGGQPRSSTYYYWGQGTQVTVSS | high polyreactivity
QVQLVESGGGLVQAGGSLRLSCAASGYTFSNNAMGWYRQAPGKERELFPTINSGGSTNYADSVKGRFTISRDNAKNTVYLQMNSLKPEDTAVYYCAAREDLYLYYNGQRVQYDYWGQGTQVTVSS | low polyreactivity
QVHLVESAGGLVQAGGSLSLSCHASGSTFVWNAMGWYRQAPGKEMELVATMTLSTGSTYYADSVKGRFTISRDNAKNTVYLQMNSLKPEDTAVYYCNTEIFVDIIYDYGLWGQGTQVTVSS | low polyreactivity
QVQLVESGGGLVQAGGSLRLSCAASGFIFGYYAMGWYRQAPGKERELVAAITSGTSTNYADSVKGRFTISRDNAKYTVYLQMNSLKPDDTAVYYCAADRWRRRFYYWGQGTQVTVSS | high polyreactivity
QVQLVESGGGLVQAGGSLRLSCAASGGIFYTNAMGWYRQAPGKERELVAAISRSGGSTYYADSVKGRFTISRDNAKNTVYLQMNSLKPEDTAVYYCAARVYVYGYSYDYWGQGTQVTVSS | high polyreactivity
QVQLVESGGGLVQAGGSLRLSCAASGRTFWNAMGWYRQAPGKERELVATITSGGITNYADSVKGRFTISRDNAKNTVYLQMNSLKPEDTAVYYCAARPYSWRNYRPSDYWGQGTQVTVSS | high polyreactivity
QVQLVDSRGGLVQAGRSLRLSCAASGIIFFAYAMGWYRQAPGKERELVAAISSSGGRTYYADSVKGRFTISRDKAKNTVYLQMNSLKPEDTAVYYCNARWHGSFDYWGQGTQVTVSS | low polyreactivity
QVQLVESGGGLVQAGGSLRLGCAASGFTLWYYNIGWYRQAPGKERELVASISWSGGSTYYADSVKGRFTISRDNAKNTVYLQMNSLKPEDTALYYCNVQSYDRIYDYWGQGTQVTVSS | high polyreactivity
QVQLVESGRGLVQAGGSLRLSCAASGSILYSYAMGWYRQAPGKERELVAAISSSGGTNYAASVKGSFTISRDNAKNTVYLQMNSLKPEDTEVYYCNADVLDGGYDYWGQGTQVTVSS | low polyreactivity
QVQLVESGGGLVQAGGSLRLSCAASGFTFYSYAMGWYRQAPGKERELVATISSGGRTYYADSVKGRFTISRDNAKNTVYLQMNSLKPEDTAVYYCAARWRPHPFAPPGYYSWGQGTQVTVSS | high polyreactivity
QVQLVESGGGLVQAGGSLRLSCAPSGLTFSNYAMGWYRQAPCKERELVAGISSSGGTTYYADSVKGRFTISRDNAKNTVFLQMNSLKPEDTAVYYCATRRHYGSFWYDYWGQGTQVTVSS | high polyreactivity
QVQLVESGGGLVQAGGSLRLSCAASGRIFPYYAMGWYRPAPGKERELVATISTAGSTNYADSVKGRFTISRDNAKNTVYLQMKSLKPEDTAVYYCATRNTWYHRGYDYWGQGTQVTVSS | low polyreactivity
